Positions count from the first letter of the chain named.
T1: cyCD3e-Fc (cynomolgus monkey, UniProt Q95LI5 22-117)
T1 sequence (looked up): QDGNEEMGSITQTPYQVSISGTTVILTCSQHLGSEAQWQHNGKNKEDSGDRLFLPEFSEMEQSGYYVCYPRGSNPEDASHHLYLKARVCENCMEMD

B1: PSMA.275 (bispecific antibody, V domains shown)
VH: QVQLVESGGGVVQPGRSLRLSCAASGRTFGIYVMGWFRQAPGKEREFVAAMSWSGSNRKVSDSVKGRFTISRDNSKNTLYLQMNSLRAEDTAVYYCAASNRTYGRTWYDFNESDYWGQGTQVTVSS
notes: TCE with CD3.23; also called AC3484
B2: PSMA.276 (bispecific antibody, V domains shown)
VH: B1 VH with V33A, F37V, A49G, M51I, T102M
notes: TCE with CD3.23; also called AC3485
B3: PSMA.277 (bispecific antibody, V domains shown)
VH: B1 VH with M34F, F37V, A49G, M51I, T102M
notes: TCE with CD3.23; also called AC3486
B4: PSMA.278 (bispecific antibody, V domains shown)
VH: B1 VH with M34W, F37V, A49G, M51I, T102M
notes: TCE with CD3.23; also called AC3487
B5: PSMA.279 (bispecific antibody, V domains shown)
VH: B1 VH with A49G, M51I, T102M
notes: TCE with CD3.23; also called AC3488
B6: PSMA.280 (bispecific antibody, V domains shown)
VH: B1 VH with V33A, F37V, T102M
notes: TCE with CD3.23; also called AC3489
B7: PSMA.281 (bispecific antibody, V domains shown)
VH: B1 VH with M34F, F37V, T102M
notes: TCE with CD3.23; also called AC3490
B8: PSMA.282 (bispecific antibody, V domains shown)
VH: B1 VH with M34W, F37V, T102M
notes: TCE with CD3.23; also called AC3491
B9: PSMA.283 (bispecific antibody, V domains shown)
VH: B1 VH with T102M
notes: TCE with CD3.23; also called AC3492
B10: PSMA.284 (bispecific antibody, V domains shown)
VH: B1 VH with V33A, F37V, A49G, M51I, T102L
notes: TCE with CD3.23; also called AC3493
B11: PSMA.285 (bispecific antibody, V domains shown)
VH: B1 VH with M34F, F37V, A49G, M51I, T102L
notes: TCE with CD3.23; also called AC3494
B12: PSMA.286 (bispecific antibody, V domains shown)
VH: B1 VH with M34W, F37V, A49G, M51I, T102L
notes: TCE with CD3.23; also called AC3495
B13: PSMA.287 (bispecific antibody, V domains shown)
VH: B1 VH with A49G, M51I, T102L
notes: TCE with CD3.23; also called AC3496
B14: PSMA.288 (bispecific antibody, V domains shown)
VH: B1 VH with V33A, F37V, T102L
notes: TCE with CD3.23; also called AC3497
B15: PSMA.289 (bispecific antibody, V domains shown)
VH: B1 VH with M34F, F37V, T102L
notes: TCE with CD3.23; also called AC3498
B16: PSMA.290 (bispecific antibody, V domains shown)
VH: B1 VH with M34W, F37V, T102L
notes: TCE with CD3.23; also called AC3499
B17: PSMA.291 (bispecific antibody, V domains shown)
VH: B1 VH with T102L
notes: TCE with CD3.23; also called AC3500
B18: AC3471 (PSMA.262 with CD3.23) (bispecific antibody, V domains shown)
VHH: B1 VH with M34W, F37V, A49G, M51I, R101K, T102L
VL: ELVVTQEPSLTVSPGGTVTLTCRSSNGAVTSSNYANWVQQKPGQAPRGLIGGTNKRAPGTPARFSGSLLGGKAALTLSGVQPEDEAVYYCALWYPNLWVFGGGTKLTVL
VH: EVQLLESGGGIVQPGGSLKLSCAASGFTFNTYAMNWVRQAPGKGLEWVARIRSKYNNYATYYADSVKDRFTISRDDSKNTVYLQMNNLKTEDTAVYYCVRHENFGNSYVSWFAHWGQGTLVTVSS
notes: Domains of one TCE chain; also called CD3.23 WT
B19: CD3.227 (bispecific antibody, V domains shown)
VH: B18 VH with L5V, K19R, A49G, S53T, Y55R, D68G, N87S
VL: B18 VL
notes: paTCE with PSMA.262; also called AC3658
B20: CD3.228 (bispecific antibody, V domains shown)
VH: B18 VH with L5V, K19R, N30S, A49G, S53T, Y55R, D68G, N87S
VL: B18 VL
notes: paTCE with PSMA.262; also called AC3659
B21: CD3.229 (bispecific antibody, V domains shown)
VH: B18 VH with L5V, K19R, A49G, S53T, Y55T, D68G, N87S
VL: B18 VL
notes: paTCE with PSMA.262; also called AC3660
B22: CD3.230 (bispecific antibody, V domains shown)
VH: B18 VH with L5V, K19R, N30S, A49G, S53T, Y55T, D68G, N87S
VL: B18 VL
notes: paTCE with PSMA.262; also called AC3661

What follows are binders tested against T2, human PSMA (human, UniProt Q04609 44-750, limits assumed) (assay: binding screen).
T2 construct: also called huPSMA; hPSMA
T2 sequence (Q04609 44-750 limits assumed): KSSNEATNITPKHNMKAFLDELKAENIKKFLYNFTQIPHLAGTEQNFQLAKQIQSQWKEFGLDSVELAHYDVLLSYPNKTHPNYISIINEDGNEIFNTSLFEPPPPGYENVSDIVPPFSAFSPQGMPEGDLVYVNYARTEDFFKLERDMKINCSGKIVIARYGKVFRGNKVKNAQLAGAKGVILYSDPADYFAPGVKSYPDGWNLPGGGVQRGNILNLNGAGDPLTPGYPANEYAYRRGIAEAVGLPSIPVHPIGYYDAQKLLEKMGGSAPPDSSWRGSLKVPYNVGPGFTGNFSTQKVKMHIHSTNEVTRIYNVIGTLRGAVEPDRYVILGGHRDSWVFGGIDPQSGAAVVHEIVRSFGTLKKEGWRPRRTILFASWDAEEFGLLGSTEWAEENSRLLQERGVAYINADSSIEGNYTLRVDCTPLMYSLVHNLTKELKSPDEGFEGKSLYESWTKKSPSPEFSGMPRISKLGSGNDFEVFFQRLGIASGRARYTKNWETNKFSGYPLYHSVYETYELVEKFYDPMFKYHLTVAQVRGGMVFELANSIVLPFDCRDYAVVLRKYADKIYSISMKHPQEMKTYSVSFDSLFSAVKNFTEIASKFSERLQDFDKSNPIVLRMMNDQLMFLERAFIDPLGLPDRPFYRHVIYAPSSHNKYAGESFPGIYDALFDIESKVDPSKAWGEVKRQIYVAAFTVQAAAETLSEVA

Question: Which Kd does the source give for B1 here?
Answer: The Kd was 20.5 nM.

Question: How did the Kd turn out when B2 was run?
Answer: Its Kd is 10.5 nM.

Question: How did the Kd turn out when B3 was run?
Answer: Its Kd is 3.1 nM.

Question: With B4 as the binder, how does the Kd read?
Answer: Its Kd is 3.9 nM.

Question: How did the Kd turn out when B5 was run?
Answer: Its Kd is 2.3 nM.

Question: B6 was tested. Which Kd did it give?
Answer: Its Kd is 16.3 nM.

Question: With B7 as the binder, how does the Kd read?
Answer: Its Kd is 5.3 nM.

Question: B8 was tested. Which Kd did it give?
Answer: The Kd was 8.7 nM.

Question: B9 was tested. Which Kd did it give?
Answer: Its Kd is 3.5 nM.

Question: How did the Kd turn out when B10 was run?
Answer: Its Kd is 4.1 nM.

Question: With B11 as the binder, how does the Kd read?
Answer: Its Kd is 3.1 nM.

Question: Does B12 bind?
Answer: Result: no binding

Question: With B13 as the binder, how does the Kd read?
Answer: The Kd was 2.3 nM.

Question: For B14, which Kd is on record?
Answer: The Kd was 6 nM.

Question: Which Kd does the source give for B15 here?
Answer: Its Kd is 6.2 nM.

Question: How did the Kd turn out when B16 was run?
Answer: The Kd was 5.5 nM.

Question: For B17, which Kd is on record?
Answer: The Kd was 2.6 nM.

Question: With B18 as the binder, how does the Kd read?
Answer: Its Kd is 2.7 nM.

The binders below were run against huCD3e-Fc (human, UniProt P07766 23-126) (assay: Octet, purified).
Description: (§1) Pool 2 consisted of paTCE molecules each containing PSMA.262 and one of 64 CD3.23 mutation combination variants. Stability and affinity of the individually expressed molecules in the form of crude lysate was evaluated by Octet. […] The binding of these anti-CD3 molecules (CD3.227, CD3.228, CD3.229 and CD3.230) to human and cynomolgus CD3 was measured by Octet and the Tm was measured by Differential Scanning Fluorimetry. All variants were paired with PSMA.262 except for CD3.23 which was paired with PSMA.5.

huCD3e-Fc, sequence (P07766 23-126): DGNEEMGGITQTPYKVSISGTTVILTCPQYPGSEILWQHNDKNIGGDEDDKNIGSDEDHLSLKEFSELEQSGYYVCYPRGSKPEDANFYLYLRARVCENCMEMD

Question: What does the source list for B19?
Answer: Kd: 57 nM; koff: 0.0196 s⁻¹; kon: 342000 M⁻¹ s⁻¹

Question: Which results are given for B20?
Answer: Kd: 69 nM; koff: 0.0217 s⁻¹; kon: 317000 M⁻¹ s⁻¹

Question: For B21, which Kd is on record?
Answer: The Kd was 162 nM.

Question: What about the koff of the same binder?
Answer: The koff was 0.052 s⁻¹.

Question: What about the kon of the same binder?
Answer: Its kon is 321000 M⁻¹ s⁻¹.

Question: B22 was tested. Which Kd did it give?
Answer: Its Kd is 195 nM.

Question: And the koff?
Answer: Its koff is 0.0633 s⁻¹.

Question: And the kon?
Answer: The kon was 325000 M⁻¹ s⁻¹.

These binders were tested against T1, cyCD3e-Fc (assay: Octet, purified).
Description: as §1

Question: B19 was tested. Which Kd did it give?
Answer: Its Kd is 80 nM.

Question: And the koff?
Answer: Its koff is 0.0253 s⁻¹.

Question: And the kon?
Answer: The kon was 315000 M⁻¹ s⁻¹.

Question: Which Kd does the source give for B20 here?
Answer: Its Kd is 80 nM.

Question: And the koff?
Answer: The koff was 0.0266 s⁻¹.

Question: What about the kon of the same binder?
Answer: Its kon is 334000 M⁻¹ s⁻¹.

Question: What does the source list for B21?
Answer: Kd: 193 nM; koff: 0.0611 s⁻¹; kon: 317000 M⁻¹ s⁻¹

Question: Which results are given for B22?
Answer: Kd: 216 nM; koff: 0.0726 s⁻¹; kon: 336000 M⁻¹ s⁻¹

Each binder was assayed against T3, human CD3 epsilon (human, UniProt P07766 23-126, limits assumed) (assay: Octet, crude lysate).
T3 construct: also called huCD3e
Outline: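 Octet binding of the anti-CD3 paTCE molecules was measured to cynomolgus CD3e-Fc with purified material and to human CD3 epsilon with crude lysate. Every variant carried PSMA.262 except CD3.23, which carried PSMA.5.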

T3 sequence (P07766 23-126 limits assumed): as the sequence (P07766 23-126) above

Question: With B18 as the binder, how does the Kd read?
Answer: Its Kd is 13.5 nM.

Question: How did the Kd turn out when B19 was run?
Answer: The Kd was 8.2 nM.

Question: For B20, which Kd is on record?
Answer: The Kd was 6.2 nM.

Question: Which Kd does the source give for B21 here?
Answer: Its Kd is 11.9 nM.

Question: B22 was tested. Which Kd did it give?
Answer: The Kd was 17 nM.

From US20260055205A1 (published 2026)
